Measurements from publication PMC12196928, “Site-Directed Mutagenesis Mediated by Molecular Modeling and Docking and Its Effect on the Protein–Protein Interactions of the bHLH Transcription Factors SPATULA, HECATE1, and INDEHISCENT” (Plants, 2025).
Positions count from the first letter of the chain named. In names and notes the source's numbering stands.

T1: VN:SPT (SPATULA fused to the N-terminal fragment of Venus YFP) (Arabidopsis thaliana, UniProt Q9FUA4 1-373)
T1 construct: SPATULA (SPT), bHLH transcription factor of Arabidopsis thaliana, AT4G36930; source: Arabidopsis Col-0 mesophyll protoplasts, transfected (PEG-Ca), in cells; not shown: Venus YFP N-terminal fragment (residues 1-154)
T1 sequence (looked up): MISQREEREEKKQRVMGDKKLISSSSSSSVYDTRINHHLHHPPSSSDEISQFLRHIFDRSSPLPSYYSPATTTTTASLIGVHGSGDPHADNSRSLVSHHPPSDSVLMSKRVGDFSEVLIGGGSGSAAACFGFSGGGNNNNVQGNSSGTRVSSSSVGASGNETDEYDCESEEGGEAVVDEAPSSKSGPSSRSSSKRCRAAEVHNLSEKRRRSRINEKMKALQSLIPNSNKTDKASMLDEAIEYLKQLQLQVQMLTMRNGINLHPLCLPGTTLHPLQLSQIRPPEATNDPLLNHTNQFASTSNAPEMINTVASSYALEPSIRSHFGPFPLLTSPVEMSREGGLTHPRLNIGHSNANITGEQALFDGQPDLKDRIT

T2: VN:SPT-4A (SPATULA V176A-V177A-D178A-E179A fused to the N-terminal fragment of Venus YFP) (Arabidopsis thaliana, UniProt Q9FUA4 1-373, V176A | V177A | D178A | E179A)
T2 construct: SPATULA (SPT), Arabidopsis thaliana, AT4G36930; source: Arabidopsis Col-0 mesophyll protoplasts, transfected (PEG-Ca), in cells; not shown: Venus YFP N-terminal fragment (residues 1-154)
T2 sequence (looked up): T1 sequence (looked up) with V176A, V177A, D178A, E179A

B1: VC:HEC1 (HECATE1 fused to the C-terminal fragment of Venus YFP) (natural protein, Arabidopsis thaliana, UniProt Q9FHA7 1-241, looked up)
chain: MDSDIMNMMMHQMEKLPEFCNPNSSFFSPDHNNTYPFLFNSTHYQSDHSMTNEPGFRYGSGLLTNPSSISPNTAYSSVFLDKRNNSNNNNNGTNMAAMREMIFRIAVMQPIHIDPEAVKPPKRRNVRISKDPQSVAARHRRERISERIRILQRLVPGGTKMDTASMLDEAIHYVKFLKKQVQSLEEQAVVTGGGGGGGGRVLIGGGGMTAASGGGGGGGVVMKGCGTVGTHQMVGNAQILR
notes: HECATE1 (HEC1), bHLH transcription factor of Arabidopsis thaliana, AT5G67060; source: Arabidopsis Col-0 mesophyll protoplasts, transfected (PEG-Ca), in cells; not shown: Venus YFP C-terminal fragment (residues 155-238)
B2: VC:IND (INDEHISCENT fused to the C-terminal fragment of Venus YFP) (natural protein, Arabidopsis thaliana, UniProt O81313 1-198, looked up)
chain: MENGMYKKKGVCDSCVSSKSRSNHSPKRSMMEPQPHHLLMDWNKANDLLTQEHAAFLNDPHHLMLDPPPETLIHLDEDEEYDEDMDAMKEMQYMIAVMQPVDIDPATVPKPNRRNVRISDDPQTVVARRRRERISEKIRILKRIVPGGAKMDTASMLDEAIRYTKFLKRQVRILQPHSQIGAPMANPSYLCYYHNSQP
notes: INDEHISCENT (IND), bHLH transcription factor of Arabidopsis thaliana, AT4G00120; source: Arabidopsis Col-0 mesophyll protoplasts, transfected (PEG-Ca), in cells; not shown: Venus YFP C-terminal fragment (residues 155-238)
B3: VC:IND-3A (INDEHISCENT N112A-R113A-R114A fused to the C-terminal fragment of Venus YFP) (natural protein, Arabidopsis thaliana, UniProt O81313 1-198, looked up)
chain: B2 chain with N112A, R113A, R114A
notes: INDEHISCENT (IND), Arabidopsis thaliana, AT4G00120; the methods list only VC:IND-3A; source: Arabidopsis Col-0 mesophyll protoplasts, transfected (PEG-Ca), in cells; not shown: Venus YFP C-terminal fragment (residues 155-238)

Columns and labels:
[1] = molecular target: T1, VN:SPT (SPATULA fused to the N-terminal …); test: split reporter (BiFC, NanoBiT); BiFC with split Venus YFP (VN 1-154, VC 155-238) in Arabidopsis Col-0 mesophyll protoplasts, PEG-Ca transfection, 35S promoter, read 16 h after transfection by confocal microscopy; frequency = YFP-positive protoplasts/total protoplasts x 100, four images of about 200 protoplasts each; conditions: partners not purified
[2] = molecular target: T2, VN:SPT-4A (SPATULA …); test: as above; conditions: partners not purified

Binder	average interaction frequency (percent of protoplasts with YFP signal) [1]	average interaction frequency (percent of protoplasts with YFP signal) [2]
B1	34.2%	
B2		13.5%
B3	13%	14.9%
